From article PMC6774794 (Nature structural & molecular biology, 2019) come the findings set out here.

Usually stoichiometry N stands for a count of units in the complex or per binding partner.

For assay [1], the target named is dynein light chain LC8 (DYNLL1/2) (human) (UniProt P63167). The assay can be described thus: cryo-EM structure.
The target in assay [2] is T1, dynein-2 intermediate chain WDR60 (human, UniProt Q8WVS4).
T1 sequence: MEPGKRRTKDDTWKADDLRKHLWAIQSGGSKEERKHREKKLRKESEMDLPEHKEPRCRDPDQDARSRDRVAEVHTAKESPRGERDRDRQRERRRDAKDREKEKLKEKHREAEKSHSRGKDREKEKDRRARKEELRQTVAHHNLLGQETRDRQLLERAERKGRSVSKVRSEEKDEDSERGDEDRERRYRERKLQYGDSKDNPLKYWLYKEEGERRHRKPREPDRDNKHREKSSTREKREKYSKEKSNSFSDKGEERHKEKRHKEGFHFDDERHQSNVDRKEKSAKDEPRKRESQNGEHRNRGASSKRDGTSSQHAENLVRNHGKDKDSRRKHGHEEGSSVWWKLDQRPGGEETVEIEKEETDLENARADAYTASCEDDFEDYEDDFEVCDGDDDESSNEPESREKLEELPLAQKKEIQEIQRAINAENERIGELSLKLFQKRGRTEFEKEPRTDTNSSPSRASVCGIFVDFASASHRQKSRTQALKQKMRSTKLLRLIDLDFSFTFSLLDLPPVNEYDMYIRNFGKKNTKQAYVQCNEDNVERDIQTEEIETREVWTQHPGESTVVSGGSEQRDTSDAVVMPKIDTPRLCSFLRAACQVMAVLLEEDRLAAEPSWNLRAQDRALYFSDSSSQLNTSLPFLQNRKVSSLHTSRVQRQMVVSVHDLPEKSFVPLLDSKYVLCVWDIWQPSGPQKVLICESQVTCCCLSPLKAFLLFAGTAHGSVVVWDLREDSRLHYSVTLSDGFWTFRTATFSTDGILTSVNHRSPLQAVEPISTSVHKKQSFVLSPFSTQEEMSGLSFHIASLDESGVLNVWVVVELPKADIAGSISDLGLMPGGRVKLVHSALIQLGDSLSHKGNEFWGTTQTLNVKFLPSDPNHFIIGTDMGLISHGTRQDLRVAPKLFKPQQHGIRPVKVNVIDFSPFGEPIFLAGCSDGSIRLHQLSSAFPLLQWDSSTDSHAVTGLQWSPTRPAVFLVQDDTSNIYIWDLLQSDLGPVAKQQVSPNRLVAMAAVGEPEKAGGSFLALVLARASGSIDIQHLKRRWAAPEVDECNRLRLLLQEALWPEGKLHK
The assay can be described thus: cryo-EM structure.

In turn, “dynein light chain LC8 (DYNLL1/2) (from UniProt P63167) (natural protein)” displayed a stoichiometry N in assay [1] of 2.

B1: dynein-2 intermediate chain WDR34 (natural protein)
chain: MATRAQPGPLSQAGSAGVAALATVGVASGPGPGRPGPLQDETLGVASVPSQWRAVQGIRWETKSCQTASIATASASAQARNHVDAQVQTEAPVPVSVQPPSQYDIPRLAAFLRRVEAMVIRELNKNWQSHAFDGFEVNWTEQQQMVSCLYTLGYPPAQAQGLHVTSISWNSTGSVVACAYGRLDHGDWSTLKSFVCAWNLDRRDLRPQQPSAVVEVPSAVLCLAFHPTQPSHVAGGLYSGEVLVWDLSRLEDPLLWRTGLTDDTHTDPVSQVVWLPEPGHSHRFQVLSVATDGKVLLWQGIGVGQLQLTEGFALVMQQLPRSTKLKKHPRGETEVGATAVAFSSFDPRLFILGTEGGFPLKCSLAAGEAALTRMPSSVPLRAPAQFTFSPHGGPIYSVSCSPFHRNLFLSAGTDGHVHLYSMLQAPPLTSLQLSLKYLFAVRWSPVRPLVFAAASGKGDVQLFDLQKSSQKPTVLIKQTQDESPVYCLEFNSQQTQLLAAGDAQGTVKVWQLSTEFTEQGPREAEDLDCLAAEVAA
As to B1, the binding result in assay [2] is listed as “binds”.
